A short description of the data set: protein stability index of a GFP-peptide fusion (GPS, HEK-293T) (PSI 1-6); higher = more stable.
[1] abbreviates: treatment: DMSO, c terminus: a fixed tail appended.
Setting [2] is: treatment: MLN4924 1 uM, 8 h, c terminus: a fixed tail appended.

± gives the standard deviation.
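Further: 24-mer peptide tiles fused after GFP, lentivirally expressed, FACS-sorted into six equal bins by GFP/DsRed ratio, decoded by Illumina sequencing, PSI is the read-weighted mean bin number.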

For NATWLVNSAAHLFGYRPYDKNISP [SCD], the protein stability index came to 2.4 ± 0.19 under setting [1] and 2.34 ± 0.41 under setting [2].

In turn, NCLGIRAFADTHSCRELLRIADKF [KLHL20] showed a protein stability index under setting [1] of 2.3 ± 0.36 and a protein stability index under setting [2] of 2.2 ± 0.18.

With NDKMAEYTNSAGVPSLNAALMHTL [GOSR1], the protein stability index came out at 3.44 ± 0.32 under setting [1] and 3.42 ± 0.23 under setting [2].

Consider NDLWPTMENLLQATKSHVDKVIMK [DYNC2LI1], for which the protein stability index was found to be 3.23 ± 0.25 under setting [1] and 3.31 ± 0.32 under setting [2].

Take NDNSPSFATPEREMRISESAASGA [PCDHGC5]: the protein stability index reads like this: under setting [1], 5.21 ± 0.17; under setting [2], 5.22 ± 0.089.

Consider NESWIKSHFSRLSEEKLALDNNAS [C10orf62], for which the protein stability index is, setting by setting: under setting [1], 4.11 ± 0.14; under setting [2], 4.29 ± 0.24.

In the case of NGTYAGPAPAFQPFFFTGAFPFNM [ANKRD40], the protein stability index is, setting by setting: under setting [1], 2.32 ± 1.2; under setting [2], 2.51 ± 0.5.

For NILFYVVGLRNTLTRIRKWIEHSK [GLT8D2], the protein stability index was determined as 2.59 ± 0.18 under setting [1] and 2.76 ± 0.46 under setting [2].

Take NILVTSGGTVKLADFGLARIYSYQ [CDK4]: the protein stability index runs as follows: under setting [1], 2.45 ± 0.81; under setting [2], 2.13 ± 0.37.

For the sequence NIRQKVKELVEFAQDDDRLREERK [CLINT1], the protein stability index is, setting by setting: under setting [1], 4.55 ± 0.17; under setting [2], 5.01 ± 0.19.

Take NKTGVSPYSKTLVLQTSEGKALQQ [TRIM9]: the protein stability index was determined as 4.19 ± 0.14 under setting [1] and 4.22 ± 0.073 under setting [2].

Take NLPFWVKEKANSLKNEIQEVEELD [SPATS1]: the protein stability index is, setting by setting: under setting [1], 4.7 ± 0.32; under setting [2], 4.82 ± 0.083.

Sequence NMEKYNFLGISIVGQSNERGDGGI [DVL3] gave a protein stability index under setting [1] of 3.18 ± 0.28 and a protein stability index under setting [2] of 3.16 ± 0.82.

In the case of NQEDAIHFHRTLKEACDQHGPDLY [CPOX], the protein stability index runs as follows: under setting [1], 4.33 ± 0.21; under setting [2], 4.47 ± 0.15.

Take NQMDKARRHPQGAWKELDRNYLNY [CHGB]: the protein stability index came out at 2.77 ± 0.32 under setting [1] and 2.84 ± 0.19 under setting [2].

In the case of NSDPEVVNVDNLLAAAVVQEHSNS [C18orf25], the protein stability index by setting is: under setting [1], 5.19 ± 0.35; under setting [2], 5.33 ± 0.2.

Turning to NSLQSYQLSPNKHFSLRVQSRANG [PCDHGA10], the protein stability index runs as follows: under setting [1], 3.41 ± 0.077; under setting [2], 3.64 ± 0.42.

Turning to NSSNSDIVHVEKEEVPEGMEEAAV [BCL2L13], the protein stability index by setting is: under setting [1], 5.6 ± 0.14; under setting [2], 5.61 ± 0.28.

Take NTLVTKTMEDTLMTVKQYEAARLE [ARFIP2]: the protein stability index is 4.19 ± 0.3 under setting [1] and 4.55 ± 0.23 under setting [2].

Take NTRNYEGQTPLAVSISISGSSRPC [ASB7]: the protein stability index was found to be 3.23 ± 0.2 under setting [1] and 3.5 ± 0.27 under setting [2].

On to NVAATGISQYEDDLPPPPADPVLD [APBB1IP], for which the protein stability index reads like this: under setting [1], 5.36 ± 0.18; under setting [2], 5.45 ± 0.19.

In turn, NVFKELQIMQGLEHPFLVNLWYSF [STK32A] came in with a protein stability index under setting [1] of 2.74 ± 0.55 and a protein stability index under setting [2] of 2.49 ± 0.53.

On to NVKSEKVYTRHGVPISVTGIAQVK [FLOT1], for which the protein stability index turned out to be 3.52 ± 0.13 under setting [1] and 3.65 ± 0.2 under setting [2].

For PAAPFDKKCGRENWTVAFAPDGSY [WSB1], the protein stability index under setting [1] was 2.63 ± 0.33 and the protein stability index under setting [2] was found to be 2.86 ± 0.13.

Take PALSQLVNLYLGRSHFLWKEPATM [TCF25]: the protein stability index is 3.25 ± 0.75 under setting [1] and 3.02 ± 0.9 under setting [2].

Take PAPNKKRKSSKLIMELTGGGQESS [MYOZ1]: the protein stability index by setting is: under setting [1], 4.82 ± 0.19; under setting [2], 4.73 ± 0.16.

For the sequence PCFKWYTSPWSECTKTCGVGVRMR [ADAMTSL2], the protein stability index is, setting by setting: under setting [1], 2.07 ± 0.17; under setting [2], 2.33 ± 0.32.

For PDEEPMHYGNIMYDRRVIRGNTYA [RSPH3], the protein stability index was determined as 3.5 ± 0.27 under setting [1] and 3.41 ± 0.33 under setting [2].

PEGKRVPKRLRCWEEEEDHEKERP [FANCE]: the protein stability index runs as follows: under setting [1], 5.21 ± 0.25; under setting [2], 5.26 ± 0.27.

Consider PEMYILKGGYKEFFPQHPNFCEPQ [CDC25B], for which the protein stability index under setting [1] is 2.6 ± 0.46 and the protein stability index under setting [2] amounted to 2.84 ± 0.36.

Take PEPRSEVVPARLKRASAPTFDNDY [RIPK4]: the protein stability index came out at 4.86 ± 0.47 under setting [1] and 4.63 ± 0.36 under setting [2].

In the case of PFDQSGLGAEESLGLLDDYLEVAK [ATF4], the protein stability index under setting [1] amounted to 4.28 ± 0.28 and the protein stability index under setting [2] was determined as 4.62 ± 0.24.

For the sequence PFEPQALGLSPSWRLTGFSGMKG [SEPHS2], the protein stability index (treatment: DMSO, c terminus: native) came to 2.51 ± 0.53 and the protein stability index (treatment: MLN4924 1 uM, 8 h, c terminus: native) turned out to be 2.64 ± 0.25.

Turning to PFRGDEGIFEESFIEERRQGLEQF [SNX12], the protein stability index stood at 4.518 ± 0.041 under setting [1] and 4.42 ± 0.18 under setting [2].

As to PFWEVLVRSTETVERDNMEEDNVE [HDAC6], the protein stability index is, setting by setting: under setting [1], 5.27 ± 0.086; under setting [2], 5.27 ± 0.13.

Take PGAGLRRPTYTPPSIMPQKHWVYV [ZBTB22]: the protein stability index by setting is: under setting [1], 2.26 ± 0.051; under setting [2], 2.04 ± 0.27.

PGKKKIRWDPVRRRFIQSCPIIRI [KLHDC10]: the protein stability index runs as follows: under setting [1], 2.01 ± 0.29; under setting [2], 2.1 ± 0.12.

For the sequence PGQGGPASTPAQTAAGGQGGPGGP [NR2F2], the protein stability index stood at 5.25 ± 0.21 under setting [1] and 5.33 ± 0.37 under setting [2].

Sequence PGRLTEALCLEVRPTYFEMKNEKL [RNF180] registered a protein stability index under setting [1] of 4.9 ± 0.21 and a protein stability index under setting [2] of 4.9 ± 0.15.

Regarding PGSGSGPGPGSGPGSGPGHGSGSH [SPAG8], the protein stability index reads like this: under setting [1], 5 ± 0.17; under setting [2], 4.93 ± 0.18.

As to PGSTSPLETSGNPNGRYGSGYLLA [SLC6A17], the protein stability index under setting [1] was found to be 3.44 ± 0.19 and the protein stability index under setting [2] came to 3.72 ± 0.33.

As to PGVLKVLWLTASQPCSIVDVEFLP [LPCAT4], the protein stability index stood at 3.08 ± 0.27 under setting [1] and 2.87 ± 0.99 under setting [2].

Take PISQEKIESERALISQCGKPVVNV [DUSP5]: the protein stability index was found to be 4.04 ± 0.55 under setting [1] and 3.91 ± 0.23 under setting [2].

Take PKNPALEAFLAQFSQLEDKFPGQS [TOR1AIP2]: the protein stability index runs as follows: under setting [1], 3.43 ± 0.1; under setting [2], 3.64 ± 0.15.

As for PLAMNYLDRFLSLEPVKKSRLQLL [CCND1], the protein stability index by setting is: under setting [1], 2.23 ± 0.12; under setting [2], 2.27 ± 0.14.

Consider PLLSGVAQEVSPCGPPSLGAVLAL [MFSD9], for which the protein stability index reads like this: under setting [1], 2.4 ± 0.35; under setting [2], 2.42 ± 0.18.

Take PLNRFSSVPLDPMERPMSQADLEL [CBY2]: the protein stability index runs as follows: under setting [1], 4.47 ± 0.18; under setting [2], 4.53 ± 0.28.

Regarding PLPESRREIEELLAEAKYYLVQGL [KCTD10], the protein stability index stood at 2.56 ± 0.2 under setting [1] and 2.77 ± 0.4 under setting [2].

With PMMKAAMYSVEITVEKDKVTGETR [PALM], the protein stability index was determined as 4.16 ± 0.33 under setting [1] and 4.29 ± 0.14 under setting [2].

PMVRKRSVSNSTQTSSSSSQSETS [DLC1]: the protein stability index reads like this: under setting [1], 5.26 ± 0.21; under setting [2], 5.3 ± 0.33.

PNLNETSIVSGGYGGSGDGLIPTG [ARFIP2] gave a protein stability index under setting [1] of 4.18 ± 0.13 and a protein stability index under setting [2] of 4.45 ± 0.095.

Regarding PNRQLWIELAPLSMPRINHGVLSA [GAN], the protein stability index by setting is: under setting [1], 2.17 ± 0.47; under setting [2], 2.19 ± 0.13.

For the origin of these results see the supplement of paper PMC10567573.
